Assay results published in patent US20250101108.

How the values were obtained:
[1] = target: PD-L1 (UniProt Q9NZQ7)
[2] = target: PD-L2-FLAG (UniProt Q9BQ51)
[3] = target: PD-L1-FLAG (UniProt Q9NZQ7)
PD-L1-FLAG, sequence (Q9NZQ7 19-290): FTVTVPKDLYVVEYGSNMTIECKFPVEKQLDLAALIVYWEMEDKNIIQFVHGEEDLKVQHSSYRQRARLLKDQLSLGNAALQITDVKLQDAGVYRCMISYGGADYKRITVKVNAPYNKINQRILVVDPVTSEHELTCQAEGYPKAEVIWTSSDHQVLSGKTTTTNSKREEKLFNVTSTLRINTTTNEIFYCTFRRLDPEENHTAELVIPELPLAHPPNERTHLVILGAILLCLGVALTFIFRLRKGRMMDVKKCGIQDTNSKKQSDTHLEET

E3 ligase ITCH, sequence (chain, as listed by the source): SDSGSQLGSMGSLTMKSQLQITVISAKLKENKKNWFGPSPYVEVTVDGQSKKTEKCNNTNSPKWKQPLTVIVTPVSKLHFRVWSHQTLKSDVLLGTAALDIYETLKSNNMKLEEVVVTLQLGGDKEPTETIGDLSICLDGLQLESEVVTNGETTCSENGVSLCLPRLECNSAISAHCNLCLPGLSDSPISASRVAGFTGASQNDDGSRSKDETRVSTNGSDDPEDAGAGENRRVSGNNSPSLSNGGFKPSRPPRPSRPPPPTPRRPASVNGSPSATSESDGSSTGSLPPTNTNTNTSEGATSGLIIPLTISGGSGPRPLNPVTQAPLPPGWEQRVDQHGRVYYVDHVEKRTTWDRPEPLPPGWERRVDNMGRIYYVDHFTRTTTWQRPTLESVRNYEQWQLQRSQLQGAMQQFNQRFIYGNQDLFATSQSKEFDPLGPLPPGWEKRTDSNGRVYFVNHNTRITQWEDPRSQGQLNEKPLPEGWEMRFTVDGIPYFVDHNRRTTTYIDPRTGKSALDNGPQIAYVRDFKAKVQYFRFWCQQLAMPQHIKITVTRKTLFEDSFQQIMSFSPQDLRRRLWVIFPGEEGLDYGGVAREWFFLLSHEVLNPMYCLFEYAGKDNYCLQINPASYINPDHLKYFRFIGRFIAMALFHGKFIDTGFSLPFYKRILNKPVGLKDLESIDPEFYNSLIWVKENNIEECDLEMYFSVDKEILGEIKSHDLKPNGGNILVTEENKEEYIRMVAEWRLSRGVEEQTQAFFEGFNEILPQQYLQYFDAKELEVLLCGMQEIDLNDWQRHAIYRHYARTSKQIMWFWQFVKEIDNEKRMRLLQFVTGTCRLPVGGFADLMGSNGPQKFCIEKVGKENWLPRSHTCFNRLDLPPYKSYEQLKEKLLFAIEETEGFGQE
PD-L2-FLAG, sequence (Q9BQ51 20-273): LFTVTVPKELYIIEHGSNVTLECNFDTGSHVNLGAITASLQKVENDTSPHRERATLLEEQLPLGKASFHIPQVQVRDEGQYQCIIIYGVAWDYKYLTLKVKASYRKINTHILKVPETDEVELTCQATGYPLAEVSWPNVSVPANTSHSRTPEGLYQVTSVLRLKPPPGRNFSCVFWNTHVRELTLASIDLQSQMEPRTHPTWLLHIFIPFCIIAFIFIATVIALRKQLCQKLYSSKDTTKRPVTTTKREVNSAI
PD-L1, sequence (Q9NZQ7 19-290): as the sequence (Q9NZQ7 19-290) above

E3 ligase ITCH
poly-ubiquitination of endogenous PD-L1 (anti-PD-L1 IP, Western blot of ubiquitin) [1]: knockdown of endogenous ITCH reduced PD-L1 poly-ubiquitination (FIGS. 2F, 2G), while over-expression of ITCH increased PD-L1 poly-ubiquitination (FIG. 2H) | poly-ubiquitination (anti-FLAG IP, Western blot of ubiquitin) [2]: co-transfection of ITCH with either PD-L1-FLAG (FIG. 2E) or PD-L2-FLAG (FIG. 9I) led to poly-ubiquitination of PD-L1 or PD-L2, respectively | poly-ubiquitination (anti-FLAG IP, Western blot of ubiquitin) [3]: co-transfection of ITCH with either PD-L1-FLAG (FIG. 2E) or PD-L2-FLAG (FIG. 9I) led to poly-ubiquitination of PD-L1 or PD-L2, respectively | ubiquitination sites by mass spectrometry [3]: Mass spectrometry analysis identified lysine 46 (K46) and K162 of PD-L1 as major ubiquitination sites caused by ITCH over-expression in 293T cells
